According to patent publication US20140105889A1 (published 2014):
Like-named read-outs stand apart in the source and are kept apart here. Each block holds one binder with its values, some of them ahead of it.

Key:
mouse FcγRIV = molecular target: T1, mouse FcγRIV (mouse); experiment: SPR (Biacore), antibody captured on Protein L, mouse FcγR as analyte, pH 7.4, 25 C
T1 construct: Bought soluble receptor; also called mFcgRIV; mFcgR IV

human FcγRIIIa(F) = molecular target: T2, human FcγRIIIa(F) (human, UniProt P08637 17-208, limits assumed); experiment: SPR (Biacore), antibody captured on Protein L, human FcγR as analyte, pH 7.4, 25 C
T2 construct: also called hFcgRIIIa(F); hFcgRIIIa

human FcRn [1] = molecular target: T3, human FcRn (human); experiment: SPR (Biacore), pH 7.0, 25 C, antibody captured by Protein L, human FcRn as analyte
T3 construct: also called hFcRn; soluble human FcRn complexed with β2-microglobulin

[2] = molecular target: T4, human FcRn (soluble human FcRn complexed with β2-microglobulin) (human, UniProt P61769 21-119); experiment: Biacore SPR, pH 7.0, 25 C; antibody captured by Protein L, human FcRn as analyte
T4 construct: also called hFcRn

[3] = molecular target: T4, human FcRn (soluble human FcRn …); experiment: as above; remark: listed apart in the source
human FcRn [4] = molecular target: T5, human FcRn (human); experiment: SPR (Biacore), pH 7.0, 25 C; antibody captured on Protein L, human FcRn injected
T5 construct: Soluble human FcRn complexed with beta2-microglobulin; also called hFcRn; soluble human FcRn complexed with β2-microglobulin

mouse FcγRIII = molecular target: T6, mouse FcγRIII (mouse, UniProt P08508 31-215); experiment: SPR (Biacore), protein L capture, pH 7.4, 25 C
T6 construct: Bought; also called mFcgRIII
T6 sequence (looked up): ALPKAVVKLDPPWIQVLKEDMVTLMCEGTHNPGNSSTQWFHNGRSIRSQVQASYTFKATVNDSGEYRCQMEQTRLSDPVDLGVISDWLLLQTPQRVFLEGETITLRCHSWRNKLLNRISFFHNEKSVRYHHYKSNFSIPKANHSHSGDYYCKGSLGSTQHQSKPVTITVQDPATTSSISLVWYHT

mouse FcγRI = molecular target: T7, mouse FcγRI (mouse, UniProt P26151 25-297); experiment: SPR (Biacore), protein L capture, pH 7.4, 25 C
T7 construct: Bought; also called mFcgRI
T7 sequence (looked up): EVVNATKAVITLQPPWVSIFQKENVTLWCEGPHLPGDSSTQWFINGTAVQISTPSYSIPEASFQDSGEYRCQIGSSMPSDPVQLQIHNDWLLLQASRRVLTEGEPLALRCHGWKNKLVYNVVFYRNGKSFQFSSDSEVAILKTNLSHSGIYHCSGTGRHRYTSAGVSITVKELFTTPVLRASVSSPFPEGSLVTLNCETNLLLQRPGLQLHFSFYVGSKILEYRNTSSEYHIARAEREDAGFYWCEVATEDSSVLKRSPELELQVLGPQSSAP

mouse FcγRIIb = molecular target: T8, mouse FcγRIIb (mouse, UniProt P08101 40-217, limits assumed); experiment: SPR (Biacore), protein L capture, pH 7.4, 25 C
T8 construct: Bought; also called mFcgRIIb
T8 sequence (looked up): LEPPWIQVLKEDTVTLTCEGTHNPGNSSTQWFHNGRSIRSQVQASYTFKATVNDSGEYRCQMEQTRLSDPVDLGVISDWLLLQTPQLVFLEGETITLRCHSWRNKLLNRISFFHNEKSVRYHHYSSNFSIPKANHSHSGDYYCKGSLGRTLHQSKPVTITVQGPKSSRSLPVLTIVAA

human FcγRIIb = molecular target: T9, human FcγRIIb (human, UniProt P31994 43-217, limits assumed); experiment: SPR (Biacore), antibody captured, FcγR as analyte
T9 construct: also called FcgRIIb; FcγIIB
T9 sequence: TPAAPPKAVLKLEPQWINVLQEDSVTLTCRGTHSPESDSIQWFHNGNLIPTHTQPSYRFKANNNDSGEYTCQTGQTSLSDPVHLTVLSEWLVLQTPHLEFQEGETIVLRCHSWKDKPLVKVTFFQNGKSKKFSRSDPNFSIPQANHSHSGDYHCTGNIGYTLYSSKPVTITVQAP

T1 sequence (A0A0B4J1G0 21-203): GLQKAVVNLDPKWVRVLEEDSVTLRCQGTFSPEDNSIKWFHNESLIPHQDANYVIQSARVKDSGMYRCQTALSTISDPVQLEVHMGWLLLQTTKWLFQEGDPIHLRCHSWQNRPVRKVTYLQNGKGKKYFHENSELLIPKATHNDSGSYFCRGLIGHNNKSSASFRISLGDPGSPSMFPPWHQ
T2 sequence (P08637 other isoform, or with tags, fused parts or gaps limits assumed): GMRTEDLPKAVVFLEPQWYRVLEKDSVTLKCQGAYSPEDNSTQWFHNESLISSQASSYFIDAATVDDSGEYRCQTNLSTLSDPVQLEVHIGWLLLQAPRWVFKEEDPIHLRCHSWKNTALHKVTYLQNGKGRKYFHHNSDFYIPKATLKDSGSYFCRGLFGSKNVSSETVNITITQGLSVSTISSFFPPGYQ

B2: F1113 (antibody, name in EU numbering)
heavy: QVQLQESGPGLVKPSETLSLTCAVSGHSISHDHAWSWVRQPPGEGLEWIGFISYSGITNYNPSLQGRVTISRDNSKNTLYLQMNSLRAEDTAVYYCARSLARTTAMDYWGEGTLVTVSSASTKGPSVFPLAPSSKSTSGGTAALGCLVKDYFPEPVTVSWNSGALTSGVHTFPAVLQSSGLYSLSSVVTVPSSSLGTQTYICNVNHKPSNTKVDKKVEPKSCDKTHTCPPCPAPELLGGPSVFLFPPKPKDTLYISRTPEVTCVVVDVSHEDPEVKFNWYVDGVEVHNAKTKPREEQYNSTYRVVSVLTVLHQDWLNGKEYKCKVSNKALPAPIEKTISKAKGQPREPQVYTLPPSRDELTKNQVSLTCLVKGFYPSDIAVEWESNGQPENNYKTTPPVLDSDGSFFLYSKLTVDKSRWQQGNVFSCSVMHEALHYHVTQKDLSLSP
light: not shown
notes: copies: 2 + 2
Kd (human FcRn [1]): 118 nM

B4: IgG1-F79 (antibody, name in EU numbering)
heavy: QVQLQESGPGLVKPSETLSLTCAVSGHSISHDHAWSWVRQPPGEGLEWIGFISYSGITNYNPSLQGRVTISRDNSKNTLYLQMNSLRAEDTAVYYCARSLARTTAMDYWGEGTLVTVSSASTKGPSVFPLAPSSKSTSGGTAALGCLVKDYFPEPVTVSWNSGALTSGVHTFPAVLQSSGLYSLSSVVTVPSSSLGTQTYICNVNHKPSNTKVDKKVEPKSCDKTHTCPPCPAPELLGGPSVFLFPPKPKDTLMITREPEVTCVVVDVSHEDPEVKFNWYVDGVEVHNAKTKPREEQYNSTYRVVSVLTVLHQDWLNGKEYKCKVSNKALPAPIEKTISKAKGQPREPQVYTLPPSRDELTKNQVSLTCLVKGFYPSDIAVEWESNGQPENNYKTTPPVLDSDGSFFLYSKLTVDKSRWQQGNVFSCSVMHEALHAHYTQKSLSLSP
light: not shown
notes: VH3-IgG1 Fc variant; EU numbering
Kd [3]: 5900 nM

B6: mPM1-mIgG1-mF39 (antibody)
heavy: DVQLQESGPVLVKPSQSLSLTCTVTGYSITSDHAWSWIRQFPGNKLEWMGYISYSGITTYNPSLKSRISITRDTSKNQFFLQLNSVTTGDTSTYYCARSLARTTAMDYWGQGTSVTVSSAKTTPPSVYPLAPGSAAQTNSMVTLGCLVKGYFPEPVTVTWNSGSLSSGVHTFPAVLQSDLYTLSSSVTVPSSTWPSETVTCNVAHPASSTKVDKKIVPRDCGCKPCICTVKEVSKVFIFPPKPKDVLYITLEPKVTCVVVDISKDDPEVQFSWFVDDVEVHTAQTQPREEQFNSTFRSVSELPIMHQDWLNGKEFKCRVNSAAFPAPIEKTISKTKGRPKAPQVYTIPPPKEQMAKDKVSLTCMITDFFPEDITVEWQWNGQPAENYKNTQPIMDTDGSYFVYSKLNVQKSNWEAGNTFTCSVLHEGLKNHHTEKSLSHSPGK
light: DIQMTQTTSSLSASLGDRVTISCRASQDISSYLNWYQQKPDGTIKLLIYYTSRLHSGVPSRFSGSGSGTDYSLTINNLEQEDIATYFCQQGNTLPYTFGGGTKLEIKRADAAPTVSIFPPSSEQLTSGGASVVCFLNNFYPKDINVKWKIDGSERQNGVLNSWTDQDSKDSTYSMSSTLTLTKDEYERHNSYTCEATHKTSTSPIVKSFNRNEC
notes: copies: 2 + 2
binding result (mouse FcγRIII): no binding
binding result (mouse FcγRI): no binding
binding result (mouse FcγRIIb): no binding

B8: GpH7-B3 D270W / GpL16-k0 (antibody, human IgG1)
heavy: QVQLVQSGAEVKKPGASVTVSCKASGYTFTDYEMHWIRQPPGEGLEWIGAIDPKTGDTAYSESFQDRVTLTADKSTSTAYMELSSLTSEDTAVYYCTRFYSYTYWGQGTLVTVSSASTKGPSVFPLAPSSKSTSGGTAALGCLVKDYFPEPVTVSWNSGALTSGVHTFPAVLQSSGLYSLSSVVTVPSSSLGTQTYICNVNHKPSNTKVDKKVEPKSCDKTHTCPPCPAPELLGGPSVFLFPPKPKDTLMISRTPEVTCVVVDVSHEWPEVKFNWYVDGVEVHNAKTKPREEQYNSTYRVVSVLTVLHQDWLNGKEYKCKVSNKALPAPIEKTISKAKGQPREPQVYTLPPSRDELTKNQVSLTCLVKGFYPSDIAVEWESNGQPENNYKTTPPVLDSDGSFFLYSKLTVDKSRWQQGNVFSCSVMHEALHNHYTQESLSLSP
light: DIVMTQSPLSLPVTPGEPASISCQASESLVHSNRNTYLHWYLQKPGQSPQLLIYKVSNRFSGVPDRFSGSGSGTDFTLKISRVEAEDVGVYYCSQNTHVPPTFGQGTKVEIE
notes: B3 variant: anti-glypican-3 IgG1 (constant region B3 = G1d with K439E) with one substitution, EU numbering; also called B3 variant D270W; copies: 2 + 2
relative binding activity (amount bound / amount bound by GpH7-B3/GpL16-k0 x100) (human FcγRIIb): -2 % of GpH7-B3/GpL16-k0

Now from value to binder:

BINDING AMOUNT (RU) (mouse FcγRIV): 242 RU
BINDING AMOUNT (RU) (human FcγRIIIa(F)): 147 RU
B1: VH3/L(WT)-IgG1-F21 (antibody)
heavy: QVQLQESGPGLVKPSETLSLTCAVSGHSISHDHAWSWVRQPPGEGLEWIGFISYSGITNYNPSLQGRVTISRDNSKNTLYLQMNSLRAEDTAVYYCARSLARTTAMDYWGEGTLVTVSSASTKGPSVFPLAPSSKSTSGGTAALGCLVKDYFPEPVTVSWNSGALTSGVHTFPAVLQSSGLYSLSSVVTVPSSSLGTQTYICNVNHKPSNTKVDKKVEPKSCDKTHTCPPCPAPELLGGPSVFLFPPKPKDTLYISRTPEVTCVVVDVSHEDPEVKFNWYVDGVEVHNAKTKPREEQYNSTYRVVSVLTPLHQDWLNGKEYKCKVSNKALPAPIEKTISKAKGQPREPQVYTLPPSRDELTKNQVSLTCLVKGFYPSDIAVEWESNGQPENNYKTTPPVLDSDGSFFLYSKLTVDKSRWQQGNVFSCSVMHEALHYHYTQKSLSLSP
light: not shown
notes: copies: 2 + 2

Kd [2]: 940 nM
B3: IgG1-F207 (antibody, name in EU numbering)
heavy: QVQLQESGPGLVKPSETLSLTCAVSGHSISHDHAWSWVRQPPGEGLEWIGFISYSGITNYNPSLQGRVTISRDNSKNTLYLQMNSLRAEDTAVYYCARSLARTTAMDYWGEGTLVTVSSASTKGPSVFPLAPSSKSTSGGTAALGCLVKDYFPEPVTVSWNSGALTSGVHTFPAVLQSSGLYSLSSVVTVPSSSLGTQTYICNVNHKPSNTKVDKKVEPKSCDKTHTCPPCPAPELLGGPSVFLFPPKPKDTLYISRTPEVTCVVVDVSHEDPEVKFNWYVDGVEVHNAKTKPREEQYNSTYRVVSVLKVLHQDWLNGKEYKCKVSNKALPAPIEKTISKAKGQPREPQVYTLPPSRDELTKNQVSLTCLVKGFYPSDIAVEWESNGQPENNYKTTPPVLDSDGSFFLYSKLTVDKSRWQQGNVFSCSVMHEALHYHYTQKSLSLSP
light: not shown
notes: as for B4

Kd (human FcRn [4]): 270 nM
B5: IgG1-F722 (antibody)
heavy: QVQLQESGPGLVKPSETLSLTCAVSGHSISHDHAWSWVRQPPGEGLEWIGFISYSGITNYNPSLQGRVTISRDNSKNTLYLQMNSLRAEDTAVYYCARSLARTTAMDYWGEGTLVTVSSASTKGPSVFPLAPSSKSTSGGTAALGCLVKDYFPEPVTVSWNSGALTSGVHTFPAVLQSSGLYSLSSVVTVPSSSLGTQTYICNVNHKPSNTKVDKKVEPKSCDKTHTCPPCPAPELLGGDSVFLFPPKPKDTLYISRTPEVTCVVVDVSHEDPEVKFNWYVDGVEVHNAKTKPREEQYNSTYRVVSVLTVLHQDWLNGKEYKCKVSNKGLPAPIEKTISKAKGQPREPQVYTLPPSRDELTKNQVSLTCLVKGFYPSDIAVEWESNGQPENNYKTTPPVLDSDGSFFLYSKLTVDKSRWQQGNVFSCSVMHEALHYHYTQKSLSLSP
light: not shown
notes: Substitutions by EU numbering; copies: 2 + 2

binding result (mouse FcγRIII): no binding
binding result (mouse FcγRI): no binding
binding result (mouse FcγRIIb): no binding
B7: mPM1-mIgG1-mF40 (antibody)
heavy: DVQLQESGPVLVKPSQSLSLTCTVTGYSITSDHAWSWIRQFPGNKLEWMGYISYSGITTYNPSLKSRISITRDTSKNQFFLQLNSVTTGDTSTYYCARSLARTTAMDYWGQGTSVTVSSAKTTPPSVYPLAPGSAAQTNSMVTLGCLVKGYFPEPVTVTWNSGSLSSGVHTFPAVLQSDLYTLSSSVTVPSSTWPSETVTCNVAHPASSTKVDKKIVPRDCGCKPCICTVKEVSKVFIFPPKPKDVLYITLEPKVTCVVVDISKDDPEVQFSWFVDDVEVHTAQTQPREEQFNSTFRSVSELPIMHQDWLNGKEFKCRVNSAAFPAPIEKTISKTKGRPKAPQVYTIPPPKEQMAKDKVSLTCMITDFFPEDITVEWQWNGQPAENYKNTQPIMDTDGSYFVYSKLNVQKSNWEAGNTFTCSVLHEGLHWHHTEKSLSHSPGK
light: DIQMTQTTSSLSASLGDRVTISCRASQDISSYLNWYQQKPDGTIKLLIYYTSRLHSGVPSRFSGSGSGTDYSLTINNLEQEDIATYFCQQGNTLPYTFGGGTKLEIKRADAAPTVSIFPPSSEQLTSGGASVVCFLNNFYPKDINVKWKIDGSERQNGVLNSWTDQDSKDSTYSMSSTLTLTKDEYERHNSYTCEATHKTSTSPIVKSFNRNEC
notes: copies: 2 + 2
